Holding throughout (conditions): both partners purified
For test [1], the target named is T1, 6xHis-tagged HACS1 SH3 domain (human, UniProt Q9NSI8 163-224).
T1 construct: human HACS1 SH3 domain, codon-optimized synthetic gene; Gene synthesized, in a pD441NH expression vector (ATUM); 15N-labelled in the NMR experiments; Minimal folded SH3 domain is 168-222 by the NMR structure; also called HACS SH3 domain; 6xHis-tagged SH3 domain; source: E. coli, purified (Nickel-NTA, gel filtration)
Briefly: SPR; biotinylated phosphopeptide on a streptavidin gold sensor chip (OpenSPR); analyte 20 µM to 0.1 µM in 10 mM Tris-HCl, 100 mM NaCl, pH 7.4, 0.1% bovine serum albumin, 0.005% Tween-20, 0.05% NaN3; 40 µL/min; 1:1 interaction model.

The target of test [2] is T2, 6xHis/Flag-tagged human SHP2 N-SH2 domain (human, UniProt Q06124 1-107).
T2 construct: human SHP2 phosphatase, N-SH2 domain, aa; 1-107; Gene synthesized; also called SHP2 SH2-N; SHP2 SH2(N) domain; source: E. coli, purified (Nickel-NTA, gel filtration)
T2 sequence (looked up): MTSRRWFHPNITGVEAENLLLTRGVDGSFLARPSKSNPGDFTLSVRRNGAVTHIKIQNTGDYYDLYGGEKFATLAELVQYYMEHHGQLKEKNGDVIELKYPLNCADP
The test is described as above.

Test [3] deals with T1, 6xHis-tagged HACS1 SH3 domain. Briefly: ITC; 600 µM PIRB-GB1 in the syringe, 37 µM 6xHis-tagged HACS1 SH3 domain in the cell; 10 mM Tris, 50 mM NaCl, 1 mM TCEP, 0.05 NaN3, pH 7.5; single-site binding model.

This is an account of results in article PMC7666139 (Communications Biology, 2020).

One may read the Kd as the concentration at which binding is half-saturated. Low readings indicate higher affinity, high ones lower affinity. One may read the koff as a measure of how fast the partners let go of each other. A low value points to slow dissociation. As usually defined, the kon is the rate constant with which the complex forms. A lower kon goes with slow association. In general, stoichiometry N refers to a count of units in the complex or per binding partner.

Non-standard residues stand in square brackets, D forms with d. No end group written: not given here. pY = N[C@@H](Cc1ccc(OP(=O)(O)O)cc1)C(=O)O

T1 sequence (Q9NSI8 163-224): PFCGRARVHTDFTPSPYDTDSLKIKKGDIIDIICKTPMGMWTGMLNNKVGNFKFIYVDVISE

B1: biotinylated human PIRB derived phosphopeptide (peptide)
chain: GGQDVT[pY]AQLHSLTRLREATE
modifications: also: biotin (position not given here)
In test [1], B1 had a Kd of 8.7 µM, a dissociation rate constant (koff) of 0.017 s⁻¹ and a kon of 1900 M⁻¹ s⁻¹. In test [2], this molecule showed a Kd of 6.7 µM, a koff of 0.026 s⁻¹ and an on-rate (kon) of 3800 M⁻¹ s⁻¹.

B2: murine PIRB-GB1 fusion protein (peptide, UniProt P97484 797-809, looked up)
chain: LCSRTLRQGAAAS
notes: 797-809; Methods: PIRB fragment and GB1 separated by a random 13 amino acid linker; Not phosphorylated; also called PIRB-GB1 hybrid protein; Protein GB1-tagged PIRB; source: E. coli, purified (Nickel-NTA, gel filtration); not shown: Protein G B1 domain (GB1), C-terminal, kept
Take B2: in test [3], the Kd stood at 15.9 µM and the “stoichiometry N” value worked out at 1.

B3: biotinylated murine PIRB derived phosphopeptide (peptide)
peptide: GGQDVT[pY]AQLCSRTLRQGAAAS
modifications: also: biotin (position not given here)
notes: The leading GG may be a spacer and not part of PIRB; also called murine PIRB phospho-ITIM3 peptide; source: synthetic peptide (Genscript)
In test [1], B3 yielded a Kd of 15.9 µM.
